Assay: soluble on expression in E. coli; label from the status in PepcDB or PDB records

Sequence	soluble on expression in E. coli
MGSDKIHHHHHHMTARHSDCVHCLMRGQSIFAGLSREEVCELGMDVQDIHVPAGTTIYHEGDPAQYAYTLRQGGIKLVKSLPNGHAQIVRLLHHGDLLGFEGLRTDRHRHSAITLTGTDLCRLELRALDALSQRLPAVREAIFARWQQALQEAEDRIVELGAKKADARLATFLCQWVGAYPQQRAAPFPLTRQDLGEFLGLSTEHVSRIMADLKRHRLLHEHKGQIEIPDPQNLFLYASSDGTRA	not soluble
MGSDKIHHHHHHMTARLESNAPVQYAFRLDDREVAVNPLIGRPLRLEYLGSIFCTHCGRKTKKSFSQGYCYPCFTRLAQCDSCIVSPEKCHYEQGTCREPEWGERFCMTDHVVYLANSSGVKVGITRASQIPTRWIDQGARQALPILRVATRQQSGLVEDLLRSQVADRTNWRAMLKGEAEPVDLAAVREQLFDQCADGLRELQQRFGLQAIQPVIDLDPLEIAYPVEAYPSKVASLDLEKTPIVEGTLRGIKGQYLILDTGVINIRKYTAYQIAVHH	not soluble
MGSDKIHHHHHHMTDDIYFAPLLPWQHGLWSQLTMRVLAQKQSLPHALLAAGMQGMGKRAFVWRLVAWLLCRARDEHPLGACGHCESCQWLRSGTHPSLQALPLISLPISADNAHTQEVASGTAKDKKTTKAASNGSLKIKVDEIRALQPFIYQGGQGMRICVLDHAEQMTIAAANALLKTLEEPQAQVHLFLISDAPAQLLPTIKSRVQQLSLQTIDPAIAVDYVTKVLGSTVHREALGTDVIEQLIQLANGAPLAAVALAQAPWYSKRALWLTTWQALRSGKRSSVAASDYWQIHLGIAEFIRLSELMVIDIRRVGLGFEAQQKDINFSTTLNGYQPIDNELEAFAHSLQQTKIALQQNVQEKFAYDKLMQELACL	not soluble
MGSDKIHHHHHHMTEKEIVDYIKNNDIQKIKFAFADIDGVLRGKLIHTDKFLDGLKEGLGFCDVVFGWDSADAGYDNVSATGWHTGYPDKLAQIDLSTFRLIPWENNTPFFLADYKNNDQTALPICPRTLLKRIAQECSAMGYHAAFAQEFEWFNFRETQQSLVEKNFHDLTPLTNGMFGYSILRPSLEDAYYNDLFDLLGAFDIPLEGLHTETGPGVYECAYFHDEVVRAADKATLLKTAVKEIANKHGIIATFMAKISDKLPGCSGHIHQSLWNTGKTENLFYDPNQEHNMSDLFKHYVAGQLYCLPHIVPMLAPTVNSYKRLVEGAWAPTTLTWGFDNRTTALRVLNHSKKTARLEQRVSGSDTNPYLAIAASLASGLYGIKHKLSLDVPPTTGNGYANKSNGSIASNLMDATQLMKNSSIAKELFGEAFVQHFTATREWEWRQFSKHVSDWEMKRYMEII	not soluble
MGSDKIHHHHHHMTETWNFINTGSKDPYYNMAMDEALLNFVSRGEIDPVIRFYTWNPATLSIGYFQRLQKEIDIDKVKEKGFGLVRRQTGGRGVLHDKELTYSVIVPESHPNMPSTVTEAYRVISQGLLEGFKNLGFNTYFAVPKTPEERQKLKQPRSSVCFDAPSWYELVVEGRKIAGSAQTRQKGVILQHGSILQDIDIDELFDMFIYKNERLKLKMKEAFVEKAVAINDISDKHITISQMEEAFEKGFKKGLNIELKPLELTEAQLAEVEELTEKYRSDEWMFRK	not soluble
MGSDKIHHHHHHMTEWVPVIYGIGLDAAGRCQHYHLETDIAALWCRRCQHYYACYRCHDTLCQHTFVASAPTDLAVMCGACRYRMTVDRYHEGQCPHCHRPFNPRCRLHDQVYFEK	not soluble
MGSDKIHHHHHHMTGDATPPVGLRFAQDKTHEVFMKRYRHTQILALLETRSAIRATEAAEMLGVSVGTIRRDMAELEAGGYLNRTHGGAFAAIEGEAGFMRRTCWNRDKKRVIGQAAAAHISSGSVVFIDGGTTPEAMLPFLVEKTSLTVVTCGLNIALQLLRWPYISTILLGGEVHAESRTVTGTLPVTQLDSFGMRFDMAVIATAGISAEHGATNRMLERLALKQLVLRNSASSILVGDSSKVNCAFLGRVAPLSAFSLCIMDDDLTDEQKAKLSEAGRFEFVPLEGSRRR	not soluble
MGSDKIHHHHHHMTHPALIDELQALADPGKVLTDAGSLETYGKDWTRQFTPAPLAIVFPKTTEQVQAIVRWANERLVALVPSGGRTGLSAAAVAANGEVVVSFDYMNQVLELNLTDRTAVCQPGVITRQLQALAEDNGLYYPVDFASSGSSQIGGNIGTNAGGIKVIRYGMTRNWVAGLKVVTGKGDLLELNKDLIKNATGYDLRQLFIGAEGTLGFVVEATMRLDRAPKNLTAMVLGTTDFNSIMPVLHAFHGKLDLTAFEFFSDKSFARVMARGDVPSPFDTPCPFYVLLEFEATTEDLADQALATFEHCVEQGWVLDGVMSQSEQQLRNLWKLREYISETISHFTPYKNDISVSVSKVPEFLAEIDAIVAEYYPDFEVLWYGHIGDGNLHLNILKPENLDKDEFFVKCARVNKWVFETVEKYNGSISAEHGVGMTKRDYLTYSRSPVEIEYMKALKAVFDPNGIMNPGKIFAV	not soluble
MGSDKIHHHHHHMTHPDGLFYQLIQDLAQGKGLPHLIWRLSQILNRPVLLTNSVHRVLVFHDPHHLNLDLDEFLYVPPVKLDEADFLNRSEHSLHHGQLTLNGQVFPFVYLPLLAGDYCLGYIFVLETYPLADSLKPKSLSAEDKETIFEASMPLLLCLKNSSEVSLRQEQYRDDFIRDILYNNYDSKAAIHEKAKSWGWNLQGSLLALVIDLPDRDFKTAREILPRLFNHSSPISAYINLQLVIILNINGLKKVKLKTALNNFINSFLDRLADHGKDRSSIGIGIGSGVPSITDLYKSYQEAKVAWELGKVFDHKSVCYFEEMGFLKFIFTQPARELEEFSQRVLGPLLEYDQAENTGLLDSLRVFIEYKCQIAECSKALYVHENTLRNRIKKIEQVTGFDLRRVDHMVNVYIALQVLNLGKDD	not soluble
MGSDKIHHHHHHMTHPSVDQENLPQTASLPENIIEAAITWSIRLDYNDPTPETRQSFDQWLHADPLHRLAWQRVDSLNNLRNDCRSLPSRLAFDTLQEVDSRRQSRKLSRRNAMKLLSLAGITIATGWTVREHTPWQRLLADASTVTGEQRVLHLTDGTVVVLNTDSAVSFDLTEAQRLIVLQRGEMHITTGPDSEVSARIGRKRPFRVRTPFGELQALGTRFVVRLDEQHARVSVQEGAVELHPSAGGSSAIVQAGESRRLTGSSILPEADRYFEEDGWVSGVIAGKNIRLADLVAELSRYRPGYIVCDERVADLPISGIFHVKDTDKALQFLAQTQPVSVMYRTRFWVIVGPKSLYR	not soluble
MGSDKIHHHHHHMTINQEHLTDCKLCKAHSWELVATLISGIWDKRHDELNREELRFPIGQCTKCHHVQVAIPYTQSIFDSLYFSNQAEPDMWCETPNGQKSPYEEMLEFIAPYIQDGAHIVDFGAGAGTTLKHIENTHKERQLTLASVDFHNHIQSETIEYLSADLNKLEALQAEFVTQPISLAISTHVLEHLIDPIHFLTQIRSMLSDDGHIFIEVPDCSPDAFIEHLAFTNLVHGQHIHYYSKDSLAQIARLAGLKIDALQQLTTGDIPRLLILLSKTTQESSTTVLPVTSGADVAVVKRFNDYHAFQDSLFKQIQQALMLNDTIGIWGIGGDFYQLTQSYPELIDLIQANSIILYDYELAGHTYVGSSIRCSSAIASTRYPVFMLPLYAPTREKMHQVSQSWSAQVIDPF	not soluble
MGSDKIHHHHHHMTIRYTFGGDEFIFVEISESMSLDAFFKGTAITRELRRRNVPGVTEICPANASYQVRYDPDVIEPDTLLALLKTIEAEVGEAALNIDTRIVEVPVLYNDPWTHETLMRFRERHQAPESTDLEYAARVNGKRDIDEFIAAHAGSPWFVSMVGFVAGLPFMYQMVERERQLQVPKYLRPRTDTPKLTVGHGGCFGCIYSVRGAGGYQMFGVTPAPIFDPAQRLDYLRDFMVFFRPGDIVKFKPIDRAEYDAAVAAVEAGTFTLRVKPVRFALEAFLRDPHAYNRSLVEVLDAN	not soluble
MGSDKIHHHHHHMTKAVAETLESKAAKAAPMDRLWAENDDSRVTGDPSLVVDVAGFEGPLDLLLHLARTQKVDLARISILALVEQYLAFVETARALRLELAADYLVMAAWLAFLKSKLLIPKQPGEEGESGEELAAVLQFRLKRLEAMRDAAARLVNRNRLGRDVFARGMPEMVIIEKRNAYSASLYDLLTAYAQQRQKQAVTNVTIARRGVWSLKDARDILTRLIGSLRDWTALDSFLIRYMTSPEERRTAIASSFAATLELVRERKMDLRQDEVFAPIYLRDHRAPAIKAVEVAS	not soluble
MGSDKIHHHHHHMTKEFTPILLGSDINVYGMARSFNEAYGIRVKALADVQLAATRYSKIVDVELHHGFSADPTFMDVMRKKMEIYKDHKEPVILIACGDGYAELLSKHKDELSKVFIVPYIEYDLLEKLISKEGFYEVAEEYGLPYPKTKIITMDDYKSGKYKDVPFQFPVELKPEDPVSWLNCQFEGRKKTFTLHDENEFEDIVTKIYTHGYTEDLILQDFIPGDDSNMRTLNAYVDKNHQVKMMCLGHPLLEDPTPQSIGNYMTILPAYDEKLYEQVQSFLEKLNYTGMANFDIKYDERDGQYKFFEINLRQGRSSFYVTLNGYNLAKWYIDDYVEDNLSDKKTVYGNKLKSKHVLWMGVPVKIFKEYAFENEAKDTAEELIHEGRYGTTVFYDKDRSLKRWLLMKYMFHNYFARYKKYYEVNKGQYFKKNK	not soluble
MGSDKIHHHHHHMTKIGEKRYIFYLTNTKIDQSIMLSELKTFIAVSQYGTFSGAGARIGLTQSAVSAQMQRLEEELGFALFDRTGRSATLNDAGRETLALAEEMMTLYARLSERGAVAAESGMLRVGAIASAQVSFLADALARFRDDRPGWRIRVVPGVSLGLLGQVDSGELDLAVIIKPPFALPSELEWRTLVTEPFVLLVPKALVRGKGNARSWRELLRSEPFIRYDRTSFGGRLVDRFLRRSRLNVHDVIELDELQGIVQLVARGIGVALIPDSAGLGKWPAGVAALELGEATFQREIGLVQRPRHSRQAVAGVLADCIGTAAGV	not soluble
MGSDKIHHHHHHMTKRAVVAGINDYRNWNSVGFGNLSWCLTDAQSFAEDVLVHGRGFRPDDITVLLDRDATRTNILEHLRRLLARADLGDVICLYFSGHGDRAQVPGTPSEWHETIVPYDGAAMISDHEINALIAGLEFNRLNLTLVLDSCHSGGVYDPAPPQGSKVAQWGEDKLGALVSTCKTILPTICAQTVDPFVNNIQAILRAVDSATMTVDGAKDTAETAKATLFSACDFDETAKENPTLRHGFMTKALLDTVTQSAFKMPNRLLASDLRGKVAAFVSQFGTSQQTPCLRGRPVRQDEDFLTEWTFSI	not soluble
MGSDKIHHHHHHMTLEHRWTGAISRLDLASGVLQQPDGDWVDEQLHHGTKVVVILRGAMRALIDGCGSEFSIAGPTVCVIRAPADASGRQMITADEPLHYVMVKAAFEPGSEADRERDPLAPLFCTDRPSLQHIEAPRALQALCTQLEVCPFVGAARDLFLSAKAIEILALACDAVETNIATETLRPSLGDVERLKKARAILLERLGAPPNLPALAAAVGMNPRKLTDGFQAAFGTTVNDFLQDARLNEAYRLLSSGATNVSEAAHRVGYTPAYFSAVFRKRFGISPRDLL	not soluble
MGSDKIHHHHHHMTLELCRLSLQQTQELLRLTDATLKNICSRRFSGEELYSEAIRRVLGGGGKRGPESIFLLIDGIGGTSRGWIFQLQAGELVRSSDEILVDADSVYSLGRLGSEVLVSNWRESFESIERYQVIFHPDIVKHIAKPIRNFVACQISGESNGALLAFNYAGEATEYDGDVLRGLSVVIGSLVTLSVMVRETEHAFIYTIEALARACEAAEESTGDHIVRVNRYAGALAAHMDLSPDFVEVISYSAQMHDVGKIRVPTAILLKPGPLDEAEERVMRLHPEFGEQILGDSPRLSVAREIALSHHENWDGSGYPRGLQGEAIPLAGRIVKLADVYDALRSRRSYKKALSHAEARAVFLNGDERITPRSHFDPRVLETFFRIEPLFERIYQSSRNQQV	not soluble
